# Biological target: microtubules (porcine brain Tubulin) (porcine (brain)) (UniProt P02550)
# Test: turbidimetry
# Chain of LEM2_(1-208) (Q8NC56 1-208): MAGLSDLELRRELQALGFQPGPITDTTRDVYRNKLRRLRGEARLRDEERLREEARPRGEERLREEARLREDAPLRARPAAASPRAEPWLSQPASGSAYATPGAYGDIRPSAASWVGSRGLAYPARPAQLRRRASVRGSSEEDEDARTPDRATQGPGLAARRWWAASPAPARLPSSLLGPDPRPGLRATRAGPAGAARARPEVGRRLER
# Chain of LEM2_(188-212) peptide (Q8NC56 188-212): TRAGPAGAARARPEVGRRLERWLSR
half-maximal scattering concentration (MT bundling) [µM],half maximal concentration (MT bundling) [µM],Substance
1.3,–,LEM2_(1-208) (from UniProt Q8NC56 1-208) (domain or fragment)
–,85.1,LEM2_(188-212) peptide (from UniProt Q8NC56 188-212)

# Source: article doi:10.1101/577460
